{
  "source": "paper PMC6615629",
  "about": "“Hsp70-nucleotide exchange factor (NEF) Fes1 has non-NEF roles in degradation of gluconeogenic enzymes and cell wall integrity” (PLoS Genetics, 2019)",
  "binders": {"B1": {"name": "GST-Fes1 (natural protein, yeast (S. cerevisiae), UniProt P38260 1-290, looked up)", "chain": "MEKLLQWSIANSQGDKEAMARAGQPDPKLLQQLFGGGGPDDPTLMKESMAVIMNPEVDLETKLVAFDNFEMLIENLDNANNIENLKLWEPLLDVLVQTKDEELRAAALSIIGTAVQNNLDSQNNFMKYDNGLRSLIEIASDKTKPLDVRTKAFYALSNLIRNHKDISEKFFKLNGLDCIAPVLSDNTAKPKLKMRAIALLTAYLSSVKIDENIISVLRKDGVIESTIECLSDESNLNIIDRVLSFLSHLISSGIKFNEQELHKLNEGYKHIEPLKDRLNEDDYLAVKYVL", "notes": "Fes1, yeast Hsp70 nucleotide exchange factor; also called wild type GST-Fes1; source: E. coli expression, purified as described [15]; not shown: GST, N-terminal, kept"}},
  "key": {"His6-Fbp1": {"molecular_target": "T1, His6-Fbp1 (yeast (S. cerevisiae), UniProt P09201 1-348)", "T1 construct": "Fbp1, yeast gluconeogenic enzyme; the initiator methionine is present in the purified protein and is counted as residue 1; also called wild type His6-Fbp1; not shown: His6, N-terminal, kept", "T1 sequence (looked up)": "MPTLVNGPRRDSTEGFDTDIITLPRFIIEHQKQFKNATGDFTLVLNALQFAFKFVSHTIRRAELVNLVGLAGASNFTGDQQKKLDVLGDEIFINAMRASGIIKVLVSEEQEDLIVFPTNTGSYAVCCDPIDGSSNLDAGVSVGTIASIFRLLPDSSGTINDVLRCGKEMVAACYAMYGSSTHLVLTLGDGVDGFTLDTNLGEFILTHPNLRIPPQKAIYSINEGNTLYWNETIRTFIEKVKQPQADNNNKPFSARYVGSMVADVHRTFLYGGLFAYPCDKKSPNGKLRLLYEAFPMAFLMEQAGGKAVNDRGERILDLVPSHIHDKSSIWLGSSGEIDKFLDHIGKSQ", "experiment": "pull-down; His6-Fbp1 (wild type or mutant) pulled down on Talon metal affinity resin; reactions with two or all three proteins; 6 μg each of His6-Fbp1 (1.6 μM), Hsp70 (0.9 μM) and GST-Fes1 (1.09 μM), with or without ATP, ADP or AMP (2.5 mM); 50 mM Tris-HCl pH 7.5, 150 mM NaCl, 2% glycerol, 5 mM MgCl2; 30 min at 4°C; washed with 5 mM imidazole, eluted with 250 mM imidazole; stained SDS-PAGE gels, bands quantified …", "conditions": "both partners purified"}, "His6-Fbp1ΔP2": {"molecular_target": "T2, His6-Fbp1ΔP2 (yeast (S. cerevisiae), UniProt P09201 1-348, ΔP2)", "T2 construct": "Fbp1, yeast gluconeogenic enzyme, proline 2 deleted; the initiator methionine is counted as residue 1; also called Fbp1P2Δ; source: E. coli expression, purified; not shown: His6, N-terminal, kept", "T2 sequence (looked up)": "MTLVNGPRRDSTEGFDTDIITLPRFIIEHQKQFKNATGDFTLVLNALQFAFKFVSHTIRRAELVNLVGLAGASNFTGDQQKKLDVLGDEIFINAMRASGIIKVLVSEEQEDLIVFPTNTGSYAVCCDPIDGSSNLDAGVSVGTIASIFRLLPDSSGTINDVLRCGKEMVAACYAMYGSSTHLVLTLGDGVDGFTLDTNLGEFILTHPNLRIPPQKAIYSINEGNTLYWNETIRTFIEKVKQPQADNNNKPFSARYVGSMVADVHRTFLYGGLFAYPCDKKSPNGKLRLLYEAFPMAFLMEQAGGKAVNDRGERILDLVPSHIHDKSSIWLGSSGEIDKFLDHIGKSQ", "experiment": "pull-down; His6-Fbp1 (wild type or mutant) pulled down on Talon metal affinity resin; reactions with two or all three proteins; 6 μg each of His6-Fbp1 (1.6 μM), Hsp70 (0.9 μM) and GST-Fes1 (1.09 μM), with or without ATP, ADP or AMP (2.5 mM); 50 mM Tris-HCl pH 7.5, 150 mM NaCl, 2% glycerol, 5 mM MgCl2; 30 min at 4°C; washed with 5 mM imidazole, eluted with 250 mM imidazole; stained SDS-PAGE gels, bands quantified …", "conditions": "both partners purified"}},
  "data": [
    {"binder": "B1", "values": [
      {"measurement": "ratio of amounts Fes1/Ssa1 pulled down by Fbp1, no nucleotide", "setting": "His6-Fbp1", "result": 0.23},
      {"measurement": "ratio of amounts Fes1/Ssa1 pulled down by Fbp1, with ADP", "setting": "His6-Fbp1", "result": 0.5},
      {"measurement": "ratio of amounts Fes1/Ssa1 pulled down by Fbp1, with AMP", "setting": "His6-Fbp1", "result": 0.18},
      {"measurement": "ratio of amounts Fes1/Ssa1 pulled down by Fbp1, with ATP", "setting": "His6-Fbp1", "result": 0.58},
      {"measurement": "ratio of amounts Fes1/Ssa2 pulled down by Fbp1, no nucleotide", "setting": "His6-Fbp1", "result": 0.33},
      {"measurement": "ratio of amounts Fes1/Ssa2 pulled down by Fbp1, with ADP", "setting": "His6-Fbp1", "result": 0.67},
      {"measurement": "ratio of amounts Fes1/Ssa2 pulled down by Fbp1, with AMP", "setting": "His6-Fbp1", "result": 0.32},
      {"measurement": "ratio of amounts Fes1/Ssa2 pulled down by Fbp1, with ATP", "setting": "His6-Fbp1", "result": 0.79},
      {"measurement": "binding result", "setting": "His6-Fbp1ΔP2", "result": "binds"}
    ]}
  ]
}
